Two molecules from PMC3189933, “Acylpeptide Hydrolase Inhibition as Targeted Strategy to Induce Proteasomal Down-Regulation” (PLoS ONE, 2011) can be followed below.

The target in experiment [1] is T1, Porcine liver acylpeptide hydrolase (porcine, UniProt P19205 1-732).
T1 sequence (looked up): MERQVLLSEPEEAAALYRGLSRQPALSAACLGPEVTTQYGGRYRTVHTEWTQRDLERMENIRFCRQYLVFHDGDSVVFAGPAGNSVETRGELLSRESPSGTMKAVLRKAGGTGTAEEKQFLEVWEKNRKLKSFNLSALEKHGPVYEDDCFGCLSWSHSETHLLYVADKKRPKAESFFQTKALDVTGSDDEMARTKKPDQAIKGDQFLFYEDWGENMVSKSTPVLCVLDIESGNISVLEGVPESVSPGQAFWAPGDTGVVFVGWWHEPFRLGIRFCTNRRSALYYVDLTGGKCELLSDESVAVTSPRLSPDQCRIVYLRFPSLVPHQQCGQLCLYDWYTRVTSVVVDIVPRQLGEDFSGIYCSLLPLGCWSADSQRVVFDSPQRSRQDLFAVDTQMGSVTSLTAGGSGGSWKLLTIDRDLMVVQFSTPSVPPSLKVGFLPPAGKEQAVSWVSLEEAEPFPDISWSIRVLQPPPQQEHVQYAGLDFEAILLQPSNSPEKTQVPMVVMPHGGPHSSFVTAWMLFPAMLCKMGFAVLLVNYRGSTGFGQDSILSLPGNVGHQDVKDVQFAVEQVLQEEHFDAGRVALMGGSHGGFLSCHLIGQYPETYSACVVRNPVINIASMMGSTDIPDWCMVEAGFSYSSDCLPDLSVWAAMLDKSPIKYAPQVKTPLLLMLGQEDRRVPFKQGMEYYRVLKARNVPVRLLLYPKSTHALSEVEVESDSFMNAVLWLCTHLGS
As to the kind of experiment: cell-based or functional assay.

For experiment [2], the target named is T1, Porcine liver acylpeptide hydrolase. As to the kind of experiment: enzyme inhibition kinetics (Lineweaver-Burk); porcine APEH (0.5 nM in the legend; 3-5 nM in the methods) pre-incubated with 100 or 150 µM SsCEI 4 for 30 min at 37°C, 50 mM Tris-HCl pH 7.5, substrate acetyl-Ala-pNA; competitive inhibition. To be noted: both partners purified.
Another experiment has as its target Bovine α-chymotrypsin (bovine). The experiment can be described thus: cell-based or functional assay.

A word on the Ki: it is the dissociation constant of the complex between target and ligand, obtained from inhibition or displacement. A lower Ki goes with higher affinity.

B1: SsCEI 4 (peptide)
peptide: H-TILAEIKNINAD-NH2
notes: As SsCEI 2 with Ala at P1; also called S4; source: synthetic peptide (solid-phase Fmoc/tBu synthesis, purified by reverse-phase HPLC)
For the molecule B1, the “IC50 of inhibition of porcine APEH activity (substrate Ac-Ala-pNA)” value in experiment [1] is 84 µM. Besides, the affinity in experiment [2], expressed as Ki, was 4 µM.

B2: SsCEI 2 (peptide)
peptide: H-TILLEIKNINAD-NH2
Turning to B2, the “IC50 of inhibition of porcine APEH activity (substrate Ac-Ala-pNA)” value in experiment [1] is 142 µM. For the same molecule, the “IC50 of inhibition of bovine α-chymotrypsin activity” value with Bovine α-chymotrypsin is 21.9 µM.
